Measured values taken from the supplement of paper PMC7125110.
± gives the standard error. For some assays here: This sample holds only a part of the variants without activity.

B1: glmS ribozyme (parent)
chain: AUAAAAGCGCCAGAACUACAGAAAUGUAGUUGACGAGGAGGAGGUUUAUCGAAUUUUCGGCGGAUGCCUCCAAA

Tests used:
Details in all cases: with glucosamine-6-phosphate
glucosamine-6-phosphate [1] = variants of: B1; assay: kcat; higher = faster cleavage; RNA array
How it was run: (§1)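 Barcoded glmS ribozyme variants on sequenced MiSeq chips were transcribed in situ by E. coli RNA polymerase and tracked through a hybridised Cy3 probe at 37 °C. Glucosamine-6-phosphate (40 μM to 10 mM) in HEPES/KCl/Mg(OAc)2 buffer was flowed in, and tiles were imaged over ~14 h. Signals were normalised to baseline and to non-cleaving reference variants; per-tile medians were fit to one- or two-exponential decays to give kobs. kcat and KM came from weighted Michaelis–Menten fits across concentrations.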

glucosamine-6-phosphate [2] = variants of: B1; assay: KM; higher = weaker cofactor use; RNA array
How it was run: as §1

glucosamine-6-phosphate [3] = variants of: B1; assay: self-cleavage kobs at 40 uM GlcN6P; higher = faster cleavage; RNA array
How it was run: as §1

glucosamine-6-phosphate [4] = variants of: B1; assay: self-cleavage kobs at 160 uM GlcN6P; higher = faster cleavage; RNA array
How it was run: as §1

glucosamine-6-phosphate [5] = variants of: B1; assay: self-cleavage kobs at 640 uM GlcN6P; higher = faster cleavage; RNA array
How it was run: as §1

glucosamine-6-phosphate [6] = variants of: B1; assay: self-cleavage kobs at 2500 uM GlcN6P; higher = faster cleavage; RNA array
How it was run: as §1

glucosamine-6-phosphate [7] = variants of: B1; assay: self-cleavage kobs at 10000 uM GlcN6P; higher = faster cleavage; RNA array
How it was run: as §1

Variant | kcat (glucosamine-6-phosphate [1]) [s⁻¹] | KM (glucosamine-6-phosphate [2]) [µM] | self-cleavage kobs at 40 uM GlcN6P (glucosamine-6-phosphate [3]) [s⁻¹] | self-cleavage kobs at 160 uM GlcN6P (glucosamine-6-phosphate [4]) [s⁻¹] | self-cleavage kobs at 640 uM GlcN6P (glucosamine-6-phosphate [5]) [s⁻¹] | self-cleavage kobs at 2500 uM GlcN6P (glucosamine-6-phosphate [6]) [s⁻¹] | self-cleavage kobs at 10000 uM GlcN6P (glucosamine-6-phosphate [7]) [s⁻¹]
U45G | 0.011 ± 0.0012 | 2240 ± 300 | 0.000203 ± 3.8e-06 | 0.000679 ± 2.9e-05 | 0.00227 ± 5.8e-05 | 0.00566 ± 0.00017 | 0.00968 ± 0.00036
G43U U65A | 4.13e-05 ± 2e-06 | 5670 ± 730 |  | < 1e-05 | < 1e-05 |  | 2.64e-05 ± 1.1e-05
U47C U54A | 0.00447 ± 0.00014 | 1630 ± 77 | 0.000112 ± 1.8e-05 | 0.00038 ± 7.2e-05 | 0.00127 ± 0.00023 | 0.00275 ± 0.00072 | 0.00384 ± 0.00049
U46C C50U | 1.22e-05 ± 2e-06 |  | < 1e-05 |  |  |  | 
U45A G59A | 0.00059 ± 0.00018 |  | < 1e-05 |  | 2.71e-05 ± 1e-05 | 6.8e-05 ± 3.3e-05 | 0.000234 ± 3.9e-05
U46C C70G | 0.000447 ± 0.00013 |  | 6.28e-05 ± 2.3e-05 | 3.81e-05 ± 1.5e-05 | 0.000178 ± 2.9e-05 | 0.000453 ± 6.5e-05 | 0.000346 ± 5.5e-05
G43U C70U | 2.12e-05 ± 3.3e-06 |  | < 1e-05 | < 1e-05 |  | 2.17e-05 ± 8.6e-06 | 
U45G C71A | 0.000924 ± 0.00018 | 1750 ± 590 | 3.27e-05 ± 1.3e-05 | 8.6e-05 ± 1.7e-05 | 0.000204 ± 3.8e-05 | 0.000778 ± 0.00016 | 0.000766 ± 0.0001
U47C A48U | 0.000264 ± 3.4e-05 | 1270 ± 340 |  |  | 9.41e-05 ± 2.5e-05 | 0.000174 ± 3.2e-05 | 
U47C C67G | 0.000337 ± 4.8e-05 | 1740 ± 450 |  | 3.84e-05 ± 8.3e-06 | 8.28e-05 ± 9.1e-06 | 0.000239 ± 3.4e-05 | 0.000279 ± 3.1e-05
U47G A53C | 0.00406 ± 0.001 | 2510 ± 860 | 0.000103 ± 3.4e-05 | 0.000223 ± 3.9e-05 | 0.000873 ± 0.00013 | 0.00196 ± 0.00025 | 0.00439 ± 0.0019
U45G U55C | 0.00551 ± 0.00089 | 2350 ± 590 | 0.000129 ± 2.6e-05 | 0.000297 ± 5.2e-05 | 0.00131 ± 0.0002 | 0.00273 ± 0.00035 | 0.00455 ± 0.00058
U47C U56C A64G | 6.84e-05 ± 1.6e-05 |  |  |  | 6.85e-05 ± 1.9e-05 | 5.93e-05 ± 1.5e-05 | 
U46A U54G | 0.00254 ± 0.00049 | 1180 ± 400 | 8.77e-05 ± 2e-05 | 0.000213 ± 5.2e-05 | 0.00113 ± 0.00014 | 0.00191 ± 0.00028 | 0.00205 ± 0.00028
